Measured values taken from patent publication US20150232562A1 (Ablynx, published 2015).

B1: 2D3 (VHH)
VHH: EVQLVESGGSLVQPGGSLRLSCAASGFTFDDYAMSWVRQVPGKGLEWVSSINWSGTHTDYADSVKGRFTISRNNANNTLYLQMNSLKSEDTAVYYCAKNWRDAGTTWFEKSGSAGQGTQVTVSS
notes: C-term myc-His6 tag; also called NB-2D3; Nb-2D3
B2: 47D5 (VHH)
VHH: KVQLVESGGGLVQPGGSLRLSCAASGSIFGFNDMAWYRQAPGKQRELVALISRVGVTSSADSVKGRFTISRVNAKDTVYLQMNSLKPEDTAVYYCYMDQRLDGSTLAYWGQGTQVTVSS
notes: C-term myc-His6 tag; also called 47A8; 47A11
B3: 2D3-35GS-47D5 (bispecific antibody)
chain: EVQLVESGGSLVQPGGSLRLSCAASGFTFDDYAMSWVRQVPGKGLEWVSSINWSGTHTDYADSVKGRFTISRNNANNTLYLQMNSLKSEDTAVYYCAKNWRDAGTTWFEKSGSAGQGTQVTVSSGGGGSGGGGSGGGGSGGGGSGGGGSGGGGSGGGGSEVQLVESGGGLVQPGGSLRLSCAASGSIFGFNDMAWYRQAPGKQRELVALISRVGVTSSADSVKGRFTISRVNAKDTVYLQMNSLKPEDTAVYYCYMDQRLDGSTLAYWGQGTQVTVSS
notes: biparatopic Nanobody; C-term myc-His6 tag; also called 2D3-47D5

What was measured:
[1] = target: T1, extracellular domain of HER2 (HER2-ECD), Flag- and polyhistidine-tagged (human, UniProt P04626 23-652); experiment: SPR, 100 nM HER2-ECD over immobilised Nanobody (about 90 RU)
T1 construct: extracellular domain; made in HEK293T cells, purified by IMAC and SEC; also called ErbB2 ECD; not shown: N-terminal Flag tag after the Ig-kappa leader; C-terminal polyhistidine tag

[2] = target: T2, recombinant human ErbB2/Fc chimera (human, UniProt P04626 23-652); experiment: SPR (Biacore 3000), purified Nanobody over immobilised rhErbB2-Fc
T2 construct: bought from R&D Systems; also called rhErbB2-Fc; rhErb2-Fc; Fc part of the bought chimera not given; not described

[3] = target: Epidermal Growth Factor Receptor 2 (HER2) (human, UniProt P04626 23-1255); experiment: cell-based or functional assay
[4] = target: T1, extracellular domain of HER2 …; experiment: SPR, 1000 nM HER2-ECD over immobilised Nanobody (about 90 RU)
[5] = target: T2, recombinant human ErbB2/Fc chimera; experiment: SPR (Biacore T100), Nanobody over immobilised rhErbB2-Fc
[6] = target: T1, extracellular domain of HER2 …; experiment: SPR, 100 nM HER2-ECD over immobilised Nanobody; row label prints 5F7, table title, text and FIG. 19 say 47D5
[7] = target: T1, extracellular domain of HER2 …; experiment: SPR, 1000 nM HER2-ECD over immobilised Nanobody; row label prints 5F7, table title, text and FIG. 19 say 47D5
[8] = target: T1, extracellular domain of HER2 …; experiment: SPR, HER2-ECD over immobilised Nanobodies

Binder	koff [1]	koff [2]	inhibition of SKBR3 cell proliferation ([3H]-thymidine), 50 nM Nanobody [3]	koff [4]	Kd [5]	koff [5]	kon [5]	koff [6]	koff [7]	fold lower koff than on each of the 2D3 and 47D5 surfaces [8]
B1	0.0021 s⁻¹	~0.001 s⁻¹	~30%	0.00151 s⁻¹	1.09 nM	0.00148 s⁻¹	1.36e+06 M⁻¹ s⁻¹	–	–	–
B2	–	–	–	–	2.23 nM	0.000862 s⁻¹	386000 M⁻¹ s⁻¹	0.00256 s⁻¹	0.00131 s⁻¹	–
B3	8.07e-05 s⁻¹	–	–	5.45e-05 s⁻¹	–	–	–	–	–	25 fold
